The nature of data set [1]: Thermal unfolding of RNase A by microwave dielectric spectroscopy (slot antenna s11 log mag, Lorentzian peak positions fitted to 2-state model). It counts as physicochemical. An excerpt:
A coaxial-fed slot antenna 25 was manufactured from RO-4002 (Rogers Corporation, Rogers, Conn.) on a LPKF ProtoMat using BoardMaster 3.0 (LPKF Laser & Electronics AG, Germany). The coaxial feed was composed of semi-rigid PE-047SR (Pasternack Enterprises, Irvine, Calif.). The dimensions of the antenna were chosen to yield a resonant frequency of approximately 3 GHz. This frequency was selected to optimize the interaction of microwave radiation with “bound water,” assumed to undergo dispersion at lower frequencies than bulk solution. The active range of the antenna extends from approximately 500 MHz to 6.5 GHz. The antenna was attached to a 0.5 cm Suprasil fused quartz UV/VIS cuvette 21 (Hellma GmbH & Co., Germany).
Microwave measurements were made utilizing as the analyzer 37 a Hewlett-Packard 8720D vector network analyzer (VNA) (Agilent Technologies, Palo Alto, Calif.) set to measure s11. The lowest power range −15 to +5 dBm was used for all experiments. The slot antenna 25 was attached to the VNA 37 using a standard 50 Ω coaxial cable 35. UV/VIS absorption measurements were performed using a Hewlett-Packard 8452A diode-array spectrophotometer with a water-thermostatted cell holder (Agilent Technologies, Palo Alto, Calif.), functioning as the optical spectrometer 28 with detector 32. Both instruments were controlled using LabView (National Instruments Corporation, Austin, Tex.) via a GPIB connection.
Data analysis was performed in one of two ways: 1) Center frequency was determined by fitting spectra at each change of temperature or other environmental conditions to a number of Lorentzian peaks; or 2) Peak amplitude was determined for spectra at each change of temperature or other environmental condition. Commercial software such as Microcal Origin was used for both types of fitting. Data, either center frequency or amplitude, could be then plotted as a function of environmental condition and subjected to further analysis. For thermal unfolding experiments, peak center frequency determination yielded better results, perhaps because many peaks overlap. Peak amplitude determination was more successful for hormone binding experiments, probably because peaks were well-spaced and non-overlapping.
(§1) Bovine pancreatic ribonuclease A (RNase A) was purchased from Sigma (St. Louis, Mo.) and used without further purification. All other reagents were purchased from Fisher Scientific (Pittsburgh, Pa.). Lyophilized protein was dissolved in a solution of 30 mM sodium acetate/acetic acid, 100 mM sodium chloride, pH 4.5, then dialyzed exhaustively before use. Protein concentrations were determined by UV-VIS spectroscopy. The extinction coefficient was taken as 0.72 mg^−1mL cm^−1 at 278 nm. Concentrations of RNase A varied from 0.2 to 1 mg/mL (14.6 to 73.0 μM). The environmental condition of the sample that was changed was temperature. RNase A was unfolded reversibly by increasing the temperature of the sample at a maximum rate of 0.4° C./min. The unfolding reaction was monitored using UV/VIS absorbance at 288 nm.
As with buffer alone, peak positions shift with temperature, and most peaks broaden with increasing temperature.
Spectra were fitted to eight Lorentzian peaks. […] Four peaks, identified in Table 1 below, responded in a sigmoidal fashion characteristic of cooperative unfolding; the remaining peaks increased or decreased monotonically with temperature.

The nature of data set [2]: Thermal unfolding of RNase A monitored by UV/VIS absorbance at 288 nm, two-state model. It is filed as physicochemical. Here is the method:
as §1
The unfolding of RNase A may be observed using UV/VIS absorbance. At low protein concentrations, the absorbance of RNase A follows Beer's Law:
where A(λ) is the absorbance, ε(λ,T) is the extinction coefficient, c is the protein concentration, and l is the path length. For selected proteins, the extinction coefficient ε depends not only on the wavelength λ and the temperature T, but also on the protein conformation. Such a dependence of ε on conformation is called a hyperchromic shift. For RNase A, the maximal hyperchromic shift occurs at approximately 288 nm.
Here, N refers to native protein, U refers to unfolded protein, Tm is the midpoint temperature (at which FN=FU=0.5 and ΔG=0 kcal/mol), ΔHm is the enthalpy at the midpoint temperature, α is the observed signal (in this case, UV/VIS absorbance), and αN and αU are the observed signals for native and unfolded protein, respectively. Since the unfolding of RNase A is a unimolecular reaction, thermodynamic parameters such as enthalpy, free energy, and mid-point temperature are independent of concentration. […] Analysis of unfolding of RNase A yields an average Tm of 58.2° C. and an average ΔHm of 74.9 kcal/mol.
Other researchers have implied that the presence of microwave radiation destabilizes protein, and may enhance rates of folding and unfolding. […] The differences in Tm and ΔHm are within experimental error and are not thought to be significant.

Where [3] appears, read: Lorentzian peak 1 (1.5 GHz at 30° C.).
The mark [4] stands for this setting: Lorentzian peak 4 (3.1 GHz at 30° C.).
Where [5] appears, read: Lorentzian peak 5 (3.5 GHz at 30° C.).
Setting [6] is: Lorentzian peak 7 (4.4 GHz at 30° C.).
[7] abbreviates: simultaneous UV/VIS and microwave measurements.

B1: Bovine pancreatic ribonuclease A (protein, UniProt P61823 27-150, looked up)
Ribonuclease pancreatic: KETAAAKFERQHMDSSTSAASSSNYCNQMMKSRNLTKDRCKPVNTFVHESLADVQAVCSQKNVACKNGQTNCYQSYSTMSITDCRETGSSKYPNCAYKTTQANKHIIVACEGNPYVPVHFDASV
notes: Bovine pancreatic ribonuclease A purchased from Sigma, used without further purification
With B1, the Tm (commonly the temperature at the midpoint of the melting transition) was 50.4 °C in data set [1] (setting [3]); 58.3 °C in data set [1] (setting [4]); 53.3 °C in data set [1] (setting [5]); 60.9 °C in data set [1] (setting [6]); 55.21 °C in data set [1] (fit to all peaks (1, 4, 5, 7)); 58.09 °C in data set [2] (UV/VIS alone). In addition, in data set [2] (setting [7]), the Tm turned out to be 58.91 °C. Moreover, the ΔHm was 66.0 kcal/mol in data set [1] (setting [3]); 161.4 kcal/mol in data set [1] (setting [4]); 72.1 kcal/mol in data set [1] (setting [5]); 76.8 kcal/mol in data set [1] (setting [6]); 54.2 kcal/mol in data set [1] (fit to all peaks (1, 4, 5, 7)); 76.8 kcal/mol in data set [2] (UV/VIS alone). The ΔHm in data set [2] (setting [7]) amounted to 65.1 kcal/mol. In addition, the “average Tm (midpoint temperature of unfolding)” value in data set [2] (average, UV/VIS absorbance 288 nm, 30 mM sodium acetate/acetic acid, 100 mM NaCl, pH 4.5) is 58.2 °C. Further, in data set [2] (average, UV/VIS absorbance 288 nm, pH 4.5 buffer), the “average ΔHm (enthalpy at midpoint temperature)” value came out at 74.9 kcal/mol.

For the origin of these results see US6801029B2, “Microwave dielectric spectroscopy method and apparatus” (Wisconsin Alumni Research Foundation, priority 2001, dated 2004).
